This is an account of results in paper doi:10.1101/2020.04.16.045526.

This series has as its target HapR (Vibrio cholerae E7946 (El Tor), UniProt Q4F6W7 1-203). Kind of series: EMSA. A general note: A gel shift assay detects complexes by their altered migration in electrophoresis.

B1: HapR BS 1 probe (32 bp) (dsDNA)
DNA 1: TAGGTTTGTTAGTGTTTACTTACTTATTTGGC
DNA 2: GCCAAATAAGTAAGTAAACACTAACAAACCTA
modifications: Cy5-dCTP added to the 3' end of one strand by TdT (strand not stated)
B1: the binding result was “binds”.

B2: HapR BS 2 probe (32 bp) (dsDNA)
DNA 1: AATTGCAATTGATAAATTTCTTGGCTAGGTGT
DNA 2: ACACCTAGCCAAGAAATTTATCAATTGCAATT
modifications: Cy5-dCTP added to the 3' end of one strand by TdT (strand not stated)
For B2, the binding result is reported as “binds”.
